Numbering of substitutions follows the chain as printed.
Assays:
[1] = target: T1, GCM1 (GCMa) (Homo sapiens, UniProt Q9NP62 Q9NP62:1-436); assay: EMSA; supershifted by anti-GCM1 antibody; 5% non-denaturing gel; details: tags: C-terminal FLAG (GCM1-FLAG); label: radiolabel
T1 sequence: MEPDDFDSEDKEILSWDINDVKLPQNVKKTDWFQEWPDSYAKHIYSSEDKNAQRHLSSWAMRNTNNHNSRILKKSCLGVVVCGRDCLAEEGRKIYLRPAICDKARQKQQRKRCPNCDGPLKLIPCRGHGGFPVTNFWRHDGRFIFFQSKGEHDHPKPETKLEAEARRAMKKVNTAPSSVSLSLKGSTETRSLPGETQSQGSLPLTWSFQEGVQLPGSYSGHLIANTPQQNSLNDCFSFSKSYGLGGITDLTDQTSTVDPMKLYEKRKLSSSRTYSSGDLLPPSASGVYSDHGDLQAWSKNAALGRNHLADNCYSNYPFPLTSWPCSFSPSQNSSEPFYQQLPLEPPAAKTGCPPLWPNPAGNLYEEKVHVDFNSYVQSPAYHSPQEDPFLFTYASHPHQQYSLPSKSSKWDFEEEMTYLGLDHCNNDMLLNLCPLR
Procedure: (§1) BeWo cells stably expressing HA-GCM1 (BeWo31) (36) were treated with or without 50 μM forskolin for 24 hours before being subjected to ChIP assay using normal mouse serum or HA mAb (Sigma, St. Louis, Mo.). The immunopurified genomic fragments were amplified by ligation-mediated PCR and the resulting amplicons were fragmented and labeled with terminal labeling kit (Affymetrix, Santa Clara, Calif.) according to the manufacturer's instructions. The chips of Human promoter 1.0R array (Affymetrix) were hybridized with the labeled amplicons, followed by data analysis using the Partek software package (St. Louis, Mo.). Furthermore, RefSeq mapping data were collected from the UCSC Genome Browser's RefFlat table (The UCSC genome browser database: update 2007). The closest RefSeq 5′ end for each ChIP region was identified, regardless of whether the cluster was upstream or downstream of the 5′ end. The primer sequences for ChIP analysis of the interaction between GCM1 and HtrA4-GBS in BeWo cells are 5′-[…]-3′ (SEQ ID NO:4) and 5′-GTCTCTAGCC CTACCCG-3′ (SEQ ID NO:5). On the other hand, analysis of direct interaction between GCM1 and HtrA4-GBS was performed by electrophoretic mobility shift assay (EMSA) as previously described (22). […] The reaction mixtures were analyzed by electrophoresis on 5% non-denaturing polyacrylamide gels. […]

[2] = target: T1, GCM1 (GCMa); assay: EMSA; GBS mutated; details: tags: C-terminal FLAG (GCM1-FLAG); label: radiolabel
Procedure: as §1

B1: HtrA4-GBS probe (dsDNA)
DNA 1: GTGAGCTTTCTTATCAGTCTGCCCTCATTGTCGGTTTT
DNA 2: AAAACCGACAATGAGGGCAGACTGATAAGAAAGCTCAC
Q: Does B1 bind [1]?
A: Result: binds

B2: HtrA4-GBSmt probe (dsDNA)
DNA 1: B1 DNA 1 with C22A, C23A, C26A, A27C
DNA 2: B1 DNA 2 with T12G, G13T, G16T, G17T
Q: Does B2 bind [2]?
A: Result: no binding

From US20140113288, “METHODS OF IDENTIFYING RISK OF PREECLAMPSIA AND PREGNANCY-RELATED DISORDERS” (Academia Sinica, published 2014)
